Here are results for four compounds from patent US9707274B2, “Methods for preventing and treating post-traumatic stress disorder (PTSD)” (priority 2007, dated 2017).

No end group written: not given here.

Data set [1] has as its system human brain muscarinic cholinergic receptor. Conditions: in vitro; cited from earlier work.
Data set [2] concerns α-adrenergic. The settings on record: topical nasal application; cited from earlier work.
For data set [3] the following is noted: rat, in vivo. The protocol: Both vasoconstricting agents are α-adrenergic agonists with short duration of action (4-6 hours). The therapeutic compound selected was hypocretin-1 (HC, MW 3500), a peptide with therapeutic potential for treating narcolepsy. In addition to determining the effect of vasoconstrictors on the intranasal delivery of hypocretin-1 to the CNS, peripheral tissues and blood, vasoconstrictor effects on the drug targeting index (DTI) were also examined.
Thirty minutes following onset of intranasal delivery, rats were perfused with saline and fixed with 4% paraformaldehyde. […] The DTI for each tissue was calculated by dividing the ratio of mean tissue concentration to blood area under the curve (AUC) of the vasoconstrictor group by the ratio of mean tissue concentration to blood AUC of the control group. DTI>1.0 indicated a drug targeting advantage with the vasoconstrictor.

Data set [4] can be described thus: Data set 1: tissue and blood distribution of intranasal HC with and without 1% PHE (pretreatment intervals 0, 5, 15 min merged). The class given is in vivo, rats. The text has this: We investigated whether incorporation of a vasoconstrictor (phenylephrine, PHE) in the nasal formulation enhances drug targeting of an intranasally applied neuropeptide (hypocretin-1, HC) to the brain in rodents. Several factors may effect CNS concentrations of HC following intranasal administration of HC in the presence of PHE, including the dose of vasoconstrictor, the time after intranasal delivery, and the pretreatment time interval. PHE is commonly used at a dose of 1% for nasal decongestion and topical nasal application of PHE results in a rapid onset of action and duration of action of approximately 4 hours. Ideally, it would be preferred to have a nasal formulation where the vasoconstrictor and CNS drug are administered together, without the need for pretreatment of the nasal cavity with vasoconstrictor. Clearly this would be more convenient than having to intranasally pretreat, wait a period of time (5 min or 15 min), and then intranasally administer the CNS drug with additional vasoconstrictor. However, waiting a short period of time may be a necessary step to allow the vasoconstrictor to activate adrenergic receptors located on blood vessels in the nasal cavity to result in constriction. Thus, in these experiments, three pretreatment time intervals were investigated: 0 min (or no pretreatment), 5 min, 15 min, to determine the time interval necessary to wait to allow the intranasally applied 1% PHE to take effect. Anesthetized rats were sacrificed at 30 minutes following intranasal delivery of HC and 1% PHE, since typically high brain concentrations are achieved within 25-30 minutes of intranasal administration.
One-way ANOVAs comparing tissue concentrations in the three groups from the PHE-treated animals were also performed. […] Thus, the therapeutic compound(s) and vasoconstrictor(s) may be combined in a pharmaceutical composition while retaining full therapeutic benefit of the present invention. […] As a result, data obtained from control animals with different pretreatment time intervals were merged and data obtained from PHE-treated animals with different pretreatment time intervals were merged. Statistical comparisons were made between tissue concentrations in control animals (n=28) and PHE-treated animals (n=23).

Details of data set [5]: species or system rats. The settings on record: rat, in vivo. The source says:
Incorporation of at least one vasoconstrictor in a nasal formulation including at least one therapeutic compound, i.e., a pharmaceutical composition, enhances intranasal therapeutic compounds targeting of therapeutics to, inter alia, the CNS, meninges and lymphatics by reducing absorption into the blood, increasing concentrations in, inter alia, the CNS, or both. […] Inclusion of a vasoconstrictor in the intranasal formulation (IN PHE) further enhances brain targeting of HC compared to the intravenous delivery from the previous study (Table 2, IN PHE vs. IV). In addition, compared to intranasal delivery with no additives, intranasal administration of HC in combination with 1% PHE further enhances intranasal drug targeting to the brain, with increased targeting to the olfactory bulbs (7-fold increase), anterior olfactory nucleus (2-fold increase), frontal cortex (2-fold increase), hippocampus (2-fold increase), and hypothalamus (2-fold increase) (Table 2, IN PHE vs. IN). 1% PHE also enhances intranasal drug targeting to the superficial and deep cervical lymph nodes (5 to 6-fold) and to the meninges surrounding the brain (2-fold). Therefore, inclusion of a vasoconstrictor in an intranasal formulation is a novel strategy to further enhance intranasal drug targeting to the brain and lymphatics compared to other routes of administration. […]

For data set [6] the following is noted: cited from earlier work.
In data set [7] the test system is saliva and plasma cortisol response. The settings on record: general intranasal insulin 40 IU, 26 normal adult men, placebo controlled; cited from earlier work.

For the compound `O=P(O)(O)OP(=O)(O)O` [pyrophosphate], in data set [1], the “Concentration protecting the receptor from inactivation by oxidants such as heme” value was 1-5 μm.

`CNC[C@H](O)c1cccc(O)c1` [PHE, phenylephrine]: the Duration of action entry in data set [2] is reported as “approximately 4 hours”.

For the compound “hypocretin-1 (QPLPDCCRQKTCSCRLYELLHGAGNHAAGILTL; ends and bridges not checked; also: 125I label, site not given here; UniProt O43612 34-66, looked up) [HC]”, in data set [3], the “Respiration during intranasal delivery” value is “did not lead to any improvement in respiration” and the “Respiratory distress in animals during intranasal delivery” value was “fewer incidences of respiratory distress”. In addition, the “Concentration of HC, Trigeminal Nerve” value in data set [4] (intranasal HC + 1% PHE, rats, 30 min) was 1.71 ± 0.15 nM. In addition, the “Concentration of HC, Medulla” value in data set [4] (intranasal HC control (no PHE), rats, 30 min) is listed as 1.26 ± 0.22 nM. Moreover, in data set [4] (rat, in vivo), the “HC targeting (tissue-to-blood ratio), 1% PHE vs control, trigeminal nerve” value is “not significantly different”; the “HC targeting (tissue-to-blood ratio), increase with 1% PHE vs control, anterior olfactory nucleus” value is 2.4 fold; the “HC targeting (tissue-to-blood ratio), increase with 1% PHE vs control, cerebellum” value was 1.7 fold; the “HC targeting (tissue-to-blood ratio), increase with 1% PHE vs control, deep cervical lymph nodes” value was 5.7 fold. In data set [4] (rat, in vivo), the “HC targeting (tissue-to-blood ratio), increase with 1% PHE vs control, dorsal meninges” value is given as 1.7 fold; the “HC targeting (tissue-to-blood ratio), increase with 1% PHE vs control, frontal cortex” value is on record as 2.3 fold; the “HC targeting (tissue-to-blood ratio), increase with 1% PHE vs control, medulla” value worked out at 1.7 fold; the “HC targeting (tissue-to-blood ratio), increase with 1% PHE vs control, midbrain” value worked out at 1.7 fold. Also, in data set [4] (rat, in vivo), the “HC targeting (tissue-to-blood ratio), increase with 1% PHE vs control, olfactory bulbs” value came out at 6.8 fold; the “HC targeting (tissue-to-blood ratio), increase with 1% PHE vs control, superficial cervical lymph nodes” value worked out at 5.7 fold; the “HC targeting (tissue-to-blood ratio), increase with 1% PHE vs control, ventral meninges” value was 2.9 fold. The “HC drug targeting, enhancement to the meninges surrounding the brain” value in data set [5] was found to be 2 fold.

As for insulin, the “Memory, attention and functioning in Alzheimer's patients” value in data set [6] (intranasal insulin over a 21 day period) was “improve memory, attention and functioning”. In addition, the “Blood levels of insulin or glucose” value in data set [6] (intranasal insulin treatment, healthy adults) is listed as “no change”. For the same compound, in data set [6] (intranasal insulin treatment), the “Memory in healthy adults” value is listed as “improves memory”. In data set [6] (intranasal insulin, twenty minutes after a single treatment), the “Memory in patients with Alzheimer's disease” value is “improve memory”. Also, the “Saliva and plasma cortisol response to the Trier Social Stress Test” value in data set [7] is “significantly diminished”.
